Test results from publication PMC12407084.

Target: Taxol-stabilized microtubules polymerized from bovine brain tubulin, Q6B856
Assay: fluorescence microscopy of microtubule decoration by GFP-tagged protein
Conditions: chain shown with the change; 100 nM GFP-tagged Ndc80c Bonsai protein; rhodamine-labeled taxol-stabilized microtubules; parent: est. 12000; read off a plot

Taxol-stabilized microtubules polymerized from bovine brain tubulin, Q6B856, sequence (chain, as listed by the source, chain 1 of 2): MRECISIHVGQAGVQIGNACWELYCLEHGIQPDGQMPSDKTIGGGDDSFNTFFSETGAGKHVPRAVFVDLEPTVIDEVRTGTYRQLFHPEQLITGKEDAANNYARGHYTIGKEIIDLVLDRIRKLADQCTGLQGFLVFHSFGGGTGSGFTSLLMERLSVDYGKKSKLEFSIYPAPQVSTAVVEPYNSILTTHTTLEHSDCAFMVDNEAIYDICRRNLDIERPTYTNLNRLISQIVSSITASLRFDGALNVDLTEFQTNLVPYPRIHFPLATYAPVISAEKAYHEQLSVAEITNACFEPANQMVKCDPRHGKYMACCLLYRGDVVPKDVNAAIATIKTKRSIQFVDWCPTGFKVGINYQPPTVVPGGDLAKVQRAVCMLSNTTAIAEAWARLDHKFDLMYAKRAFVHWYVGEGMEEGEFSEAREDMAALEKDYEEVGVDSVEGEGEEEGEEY
Taxol-stabilized microtubules polymerized from bovine brain tubulin, Q6B856, sequence (Q6B856 whole entry, chain 2 of 2): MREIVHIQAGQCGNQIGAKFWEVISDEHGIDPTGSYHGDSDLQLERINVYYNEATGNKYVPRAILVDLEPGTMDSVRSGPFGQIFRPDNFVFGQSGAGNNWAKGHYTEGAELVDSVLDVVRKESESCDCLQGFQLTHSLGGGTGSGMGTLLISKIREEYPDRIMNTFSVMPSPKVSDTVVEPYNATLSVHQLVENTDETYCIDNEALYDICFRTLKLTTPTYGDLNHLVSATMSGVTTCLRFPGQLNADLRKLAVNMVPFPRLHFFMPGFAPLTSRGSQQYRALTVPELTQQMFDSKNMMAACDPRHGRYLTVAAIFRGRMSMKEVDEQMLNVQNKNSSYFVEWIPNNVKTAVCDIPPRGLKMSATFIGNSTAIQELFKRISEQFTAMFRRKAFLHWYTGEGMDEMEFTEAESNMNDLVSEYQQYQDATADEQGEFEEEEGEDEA

B1: Human Ndc80c Bonsai Ndc80-GFP (WT) Nuf2:K33D; Nuf2:K41D; Nuf2:K115D (protein)
chain 1: MKRSSVSSGGAGRLSMQELRSQDVNKQGLYTPQTKEKPTFGKLSINKPTSERKVSLFGKRTSGHGSRNSQLGIFSSSEKIKDPRPLNDKAFIQQCIRQLCEFLTENGYAHNVSMKSLQAPSVKDFLKIFTFLYGFLCPSYELPDTKFEEEVPRIFKDLGYPFALSKSSMYTVGAPHTWPHIVAALVWLIDCIKIHTAMKESSPLFDDGQPWGEETEDGIMHNKLFLDYTIKCYESFMSGADSFDEMNAELQSKLKDLFNVDAFKLESLEAKNRALNEQIARLEQERSTANKANAERLKRLQKSADLYKDRLGLEIRKIYGEKLQFIFTNIDPKNPESPFMFSLHLNEARDYEVSDSAPHLEGLAEFQENVRKTNNFSAFLANVRKAFTATVYN
chain 2: METLSFPRYNVAEIVIHIRNKILTGADGKNLTDNDLYPNPDPEVLHMIYMRALQIVYGIRLEHFYMMPVNSEVMYPHLMEGFLPFSNLVTHLDSFLPICRVNDFETADILCPKADRTSRFLSGIINFIHFREACRETYMEFLWQYKSSADKMQQLNAAHQEALMKLERLEKEVDEDTTVTIPSAVYVAQLYHQVSKIEWDYECEPGMVKGIHHGPSVAQPIHLDSTQLSRKFISDYLWSLVDTEW
B1 was tested. Which response did it give?
Its response is 160 a.u.

B2: Human Ndc80c Bonsai Ndc80-GFP (WT) Hec1:K166D (protein)
chain 1: MKRSSVSSGGAGRLSMQELRSQDVNKQGLYTPQTKEKPTFGKLSINKPTSERKVSLFGKRTSGHGSRNSQLGIFSSSEKIKDPRPLNDKAFIQQCIRQLCEFLTENGYAHNVSMKSLQAPSVKDFLKIFTFLYGFLCPSYELPDTKFEEEVPRIFKDLGYPFALSDSSMYTVGAPHTWPHIVAALVWLIDCIKIHTAMKESSPLFDDGQPWGEETEDGIMHNKLFLDYTIKCYESFMSGADSFDEMNAELQSKLKDLFNVDAFKLESLEAKNRALNEQIARLEQERSTANKANAERLKRLQKSADLYKDRLGLEIRKIYGEKLQFIFTNIDPKNPESPFMFSLHLNEARDYEVSDSAPHLEGLAEFQENVRKTNNFSAFLANVRKAFTATVYN
chain 2: METLSFPRYNVAEIVIHIRNKILTGADGKNLTKNDLYPNPKPEVLHMIYMRALQIVYGIRLEHFYMMPVNSEVMYPHLMEGFLPFSNLVTHLDSFLPICRVNDFETADILCPKAKRTSRFLSGIINFIHFREACRETYMEFLWQYKSSADKMQQLNAAHQEALMKLERLEKEVDEDTTVTIPSAVYVAQLYHQVSKIEWDYECEPGMVKGIHHGPSVAQPIHLDSTQLSRKFISDYLWSLVDTEW
With B2 as the binder, how does the response read?
The response was 400 a.u.
